Test results from PMC4501363.

Biological target: actin-related protein 1 (human (endogenous in HEK293T)) (UniProt P61163)
Test: co-sedimentation

percent of Arp1 in the monomer/dimer pool: < 5%
Substance: actin-related protein 1 (from UniProt P61163 1-376) (natural protein)
